Data as given in PMC9499628, “Nuclear Factor Kappa B Promotes Ferritin Heavy Chain Expression in Bombyx mori in Response to B. mori Nucleopolyhedrovirus Infection”.

T1: BmRelish RHD (RelRHD) (Bombyx mori, UniProt A0A8R2LW60 51-335)
T1 sequence: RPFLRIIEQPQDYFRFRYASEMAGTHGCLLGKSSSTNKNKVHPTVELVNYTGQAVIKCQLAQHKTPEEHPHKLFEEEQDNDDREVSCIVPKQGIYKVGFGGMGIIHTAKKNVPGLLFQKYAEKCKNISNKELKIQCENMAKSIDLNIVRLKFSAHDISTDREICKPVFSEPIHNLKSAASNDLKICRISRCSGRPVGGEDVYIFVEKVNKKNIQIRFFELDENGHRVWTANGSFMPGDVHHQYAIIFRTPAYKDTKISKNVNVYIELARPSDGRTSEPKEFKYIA

B1: Mut-CRE2 (dsDNA)
DNA 1: AATGTACATTATCTCCATCTCG
DNA 2: CGAGATGGAGATAATGTACATT
B2: Mut-CRE4 (dsDNA)
DNA 1: AATAAGTGCCAAACACTCCATCTCGC
DNA 2: GCGAGATGGAGTGTTTGGCACTTATT
B3: probe-CRE2 (dsDNA)
DNA 1: AATGTAGGTTATTTCCATCTCG
DNA 2: CGAGATGGAAATAACCTACATT
B4: probe-CRE4 (dsDNA)
DNA 1: AATAAGTGGGAATCTCTCCATCTCGC
DNA 2: GCGAGATGGAGAGATTCCCACTTATT

Columns and labels:
BmRelish RHD (RelRHD) [1] = target: T1, BmRelish RHD (RelRHD); assay: competition; mutant competitor against CRE2 probe; band not affected; Chemiluminescent EMSA Kit (Beyotime), manufacturer's instructions; buffer, salt, pH and temperature not stated; settings: protein: recombinant; tags: 6xHis (pET-30a); chain copies: 2; blunt
BmRelish RHD (RelRHD) [2] = target: T1, BmRelish RHD (RelRHD); assay: competition; mutant competitor against CRE4 probe; band not affected; Chemiluminescent EMSA Kit (Beyotime), manufacturer's instructions; buffer, salt, pH and temperature not stated; settings: protein: recombinant; tags: 6xHis (pET-30a); chain copies: 2; blunt
BmRelish RHD (RelRHD) [3] = target: T1, BmRelish RHD (RelRHD); assay: EMSA; cold probe weakens band; Chemiluminescent EMSA Kit (Beyotime), manufacturer's instructions; buffer, salt, pH and temperature not stated; settings: protein: recombinant; tags: 6xHis (pET-30a); chain copies: 2; label: 5' biotin (unlabelled as cold probe); blunt

| Binder | binding result (BmRelish RHD (RelRHD) [3]) | further results |
| --- | --- | --- |
| B1 |  | binding result (BmRelish RHD (RelRHD) [1]): no binding |
| B2 |  | binding result (BmRelish RHD (RelRHD) [2]): no binding |
| B3 | binds |  |
| B4 | binds |  |
